Assay results reported in publication PMC11772769, “Selective cargo and membrane recognition by SNX17 regulates its interaction with Retriever” (EMBO Reports, 2024).

Molecular target: T1, Peptide SNX17_(CT-18), Q15036
T1 chain: ASDVHGNFAFEGIGDEDL
Assay: fluorescence anisotropy
Conditions: chain shown with the change; 5-FAM-labeled SNX17CT-18 peptide; parent: LB

B1: MBP-SNX17 (full-length, wild-type), Q15036 N459A; F462A (protein)
chain: MHFSIPETESRSGDSGGSAYVAYNIHVNGVLHCRVRYSQLLGLHEQLRKEYGANVLPAFPPKKLFSLTPAEVEQRREQLEKYMQAVRQDPLLGSSETFNSFLRRAQQETQQVPTEEVSLEVLLSNGQKVLVNVLTSDQTEDVLEAVAAKLDLPDDLIGYFSLFLVREKEDGAFSFVRKLQEFELPYVSVTSLRSQEYKIVLRKSYWDSAYDDDVMENRVGLNLLYAQTVSDIERGWILVTKEQHRQLKSLQEKVSKKEFLRLAQTLRHYGYLRFDACVADFPEKDCPVVVSAGNSELSLQLRLPGQQLREGSFRVTRMRCWRVTSSVPLPSGSTSSPGRGRGEVRLELAFEYLMSKDRLQWVTITSPQAIMMSICLQSMVDELMVKKSGGSIRKMLRRRVGGTLRRSDSQQAVKSPPLLESPDATRESMVKLSSKLSAVSLRGIGSPSTDASASDVHGAFAAEGIGDEDL
B1 gave a Kd of 86 µM.
